Target: T1, NCU-G1 (kidney predominant protein), GST fusion (Homo sapiens, UniProt Q8WWB7 1-406)
T1 sequence: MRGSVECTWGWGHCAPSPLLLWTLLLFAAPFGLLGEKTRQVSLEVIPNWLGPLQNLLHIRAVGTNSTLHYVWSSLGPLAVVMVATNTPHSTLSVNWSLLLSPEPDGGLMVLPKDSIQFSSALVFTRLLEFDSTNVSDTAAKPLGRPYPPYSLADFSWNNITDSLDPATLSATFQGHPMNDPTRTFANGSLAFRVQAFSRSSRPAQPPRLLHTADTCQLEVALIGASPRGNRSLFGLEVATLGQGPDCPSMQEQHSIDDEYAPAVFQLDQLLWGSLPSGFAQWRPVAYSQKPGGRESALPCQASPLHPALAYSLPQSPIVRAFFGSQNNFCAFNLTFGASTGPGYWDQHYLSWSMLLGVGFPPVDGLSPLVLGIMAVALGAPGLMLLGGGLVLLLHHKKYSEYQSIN
Assay: competition; 50-fold molar excess unlabeled vs 32P-FP1, EMSA; EMSA: 3 x 10^4 cpm 32P probe with 2 ug GST-NCU-G1; buffer, salt, pH and temperature not given (as described in ref 17)
Settings: protein: recombinant; tags: N-terminal GST (pGEX-5X-3); double-stranded

B1: AP1 oligonucleotide (dsDNA)
DNA 1: CGCTTGATGACTCAGCCGGAA
DNA 2: TTCCGGCTGAGTCATCAAGCG
binding result: no binding
